Drawing on patent US20260193376A1, this text covers Stimulation Index, FXa generation assay, 3260 nM OA antibody for 1 molecule.

The target in this experiment is human plasma-derived Factor IXa (human) (UniProt P00740). The experiment is described as follows: cell-based or functional assay.

Bounds are passed on as bounds.

Chain of human plasma-derived Factor IXa (human) (P00740 47-191, chain 1 of 2): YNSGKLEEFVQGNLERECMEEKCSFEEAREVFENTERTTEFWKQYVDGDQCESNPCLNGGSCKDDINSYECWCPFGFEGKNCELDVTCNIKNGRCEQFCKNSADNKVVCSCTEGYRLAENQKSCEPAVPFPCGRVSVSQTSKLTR
Chain of human plasma-derived Factor IXa (human) (P00740 227-461, chain 2 of 2): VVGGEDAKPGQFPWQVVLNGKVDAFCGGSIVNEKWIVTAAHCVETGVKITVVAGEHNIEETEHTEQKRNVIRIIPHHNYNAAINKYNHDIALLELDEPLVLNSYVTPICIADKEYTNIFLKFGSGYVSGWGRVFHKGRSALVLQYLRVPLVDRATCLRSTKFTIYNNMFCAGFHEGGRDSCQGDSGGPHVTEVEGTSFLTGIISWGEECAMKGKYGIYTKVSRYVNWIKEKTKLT

B1: one-armed (OA) 224F3 antibody (antibody, from another filing, V domains shown)
VH: QVQMQQSGAELVKPGASVKLSCKASGYTFTSQDINWVRQRPEQGLEWIGWIFPGDGSTKYNEKLKGKATLTTDKSSSTAFMQLSRLTSEDSAVYFCARSAYYRYDGSYYYAMDYWGQGTSVTVSS
VL: QIVLTQSPAIMSASLGEEITLTCSASSSVSYMLWYQQKSGTSPKLLIYTTSNLASGVPSRFSGTGSGTFYSLTISSVEAEDAADYYCHQWSSYPRTFGGGTKLEIKR
For the molecule B1, the Stimulation Index, FXa generation assay, 3260 nM OA antibody is below 10 fold.
